Target: purified C3b (UniProt P01024 23-667; P01024 749-1663)
Assay: SPR

Chain of purified C3b (P01024 23-667, chain 1 of 2): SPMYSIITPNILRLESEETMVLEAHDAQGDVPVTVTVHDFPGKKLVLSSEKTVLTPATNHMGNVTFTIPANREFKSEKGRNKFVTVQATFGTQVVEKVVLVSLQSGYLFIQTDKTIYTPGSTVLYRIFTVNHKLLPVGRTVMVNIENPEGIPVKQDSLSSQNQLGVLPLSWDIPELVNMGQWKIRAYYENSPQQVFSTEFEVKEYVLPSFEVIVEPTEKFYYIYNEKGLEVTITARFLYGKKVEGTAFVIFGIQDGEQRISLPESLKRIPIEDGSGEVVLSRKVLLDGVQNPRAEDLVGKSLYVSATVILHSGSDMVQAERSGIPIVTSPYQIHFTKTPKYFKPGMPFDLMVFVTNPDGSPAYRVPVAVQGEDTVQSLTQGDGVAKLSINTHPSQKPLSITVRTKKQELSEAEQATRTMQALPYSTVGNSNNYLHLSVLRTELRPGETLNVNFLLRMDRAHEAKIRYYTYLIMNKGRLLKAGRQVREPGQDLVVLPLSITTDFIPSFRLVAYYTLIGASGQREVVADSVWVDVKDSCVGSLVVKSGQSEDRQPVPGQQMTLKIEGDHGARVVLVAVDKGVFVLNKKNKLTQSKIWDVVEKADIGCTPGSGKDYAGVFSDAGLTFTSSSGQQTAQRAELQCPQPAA
Chain of purified C3b (P01024 749-1663, chain 2 of 2): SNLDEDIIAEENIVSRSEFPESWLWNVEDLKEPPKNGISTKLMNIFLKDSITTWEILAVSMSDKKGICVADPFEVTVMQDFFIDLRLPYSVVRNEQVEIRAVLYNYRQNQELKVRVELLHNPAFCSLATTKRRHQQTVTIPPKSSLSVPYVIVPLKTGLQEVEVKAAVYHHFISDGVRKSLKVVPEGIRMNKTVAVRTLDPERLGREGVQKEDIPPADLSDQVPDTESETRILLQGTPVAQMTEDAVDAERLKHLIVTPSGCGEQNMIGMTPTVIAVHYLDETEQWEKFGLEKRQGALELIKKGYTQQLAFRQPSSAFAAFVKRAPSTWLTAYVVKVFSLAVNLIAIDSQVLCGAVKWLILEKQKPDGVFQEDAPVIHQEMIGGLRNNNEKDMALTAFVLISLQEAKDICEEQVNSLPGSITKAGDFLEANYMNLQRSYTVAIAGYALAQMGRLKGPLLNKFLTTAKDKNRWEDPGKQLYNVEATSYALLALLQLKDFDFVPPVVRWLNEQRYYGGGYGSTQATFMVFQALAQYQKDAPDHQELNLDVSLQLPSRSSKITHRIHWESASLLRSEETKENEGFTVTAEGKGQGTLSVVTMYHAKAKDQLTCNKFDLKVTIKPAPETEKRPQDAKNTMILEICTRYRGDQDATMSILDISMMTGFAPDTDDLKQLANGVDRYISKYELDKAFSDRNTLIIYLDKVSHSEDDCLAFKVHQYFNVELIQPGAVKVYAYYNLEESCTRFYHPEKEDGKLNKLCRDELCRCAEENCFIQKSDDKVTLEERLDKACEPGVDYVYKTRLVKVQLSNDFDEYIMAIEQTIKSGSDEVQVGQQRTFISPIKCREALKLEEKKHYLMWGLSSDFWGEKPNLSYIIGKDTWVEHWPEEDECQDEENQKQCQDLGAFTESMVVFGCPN

B1: recombinant wild-type Factor H-related protein 5 (FHR-5WT) (natural protein)
chain: EGTLCDFPKIHHGFLYDEEDYNPFSQVPTGEVFYYSCEYNFVSPSKSFWTRITCTEEGWSPTPKCLRMCSFPFVKNGHSESSGLIHLEGDTVQIICNTGYSLQNNEKNISCVERGWSTPPICSFTKGECHVPILEANVDAQPKKESYKVGDVLKFSCRKNLIRVGSDSVQCYQFGWSPNFPTCKGQVRSCGPPPQLSNGEVKEIRKEEYGHNEVVEYDCNPNFIINGPKKIQCVDGEWTTLPTCVEQVKTCGYIPELEYGYVQPSVPPYQHGVSVEVNCRNEYAMIGNNMITCINGIWTELPMCVATHQLKRCKIAGVNIKTLLKLSGKEFNHNSRIRYRCSDIFRYRHSVCINGKWNPEVDCTEKREQFCPPPPQIPNAQNMTTTVNYQDGEKVAVLCKENYLLPEAKEIVCKDGRWQSLPRCVESTAYCGPPPSINNGDTTSFPLSVYPPGSTVTYRCQSFYKLQGSVTVTCRNKQWSEPPRCLDPCVVSEENMNKNNIQLKWRNDGKLYAKTGDAVEFQCKFPHKAMISSPPFRAICQEGKFEYPICE
- koff: 0.141 s⁻¹

Source: publication PMC8461307 (2021)
